# Reference: paper PMC2671562, “Structural and Functional Analyses of PAS Domain Interactions of the Clock Proteins Drosophila PERIOD and Mouse PERIOD2” (PLoS Biology, 2009)
# Molecular target: the molecule itself
# Test: AUC; sedimentation equilibrium, interference optics, 10 °C, 25 mM HEPES pH 7.7, 100 mM NaCl, 2 mM DTE; four starting concentrations from stocks of 0.8–2 mg/ml; dimer to monomers, K D = 1/K A
row,Protein,Kd [nM]
1,"mouse PERIOD2 fragment mPER2[170–473] (domain or fragment, two additional N-terminal residues (Gly168 and Ser169) seen in molecule 1 of the crystal, cloning artefacts; GST fusion from pGEX-6P2, GST removed with PreScission protease; also called crystallized mPER2 fragment) GSSYSMEQVEGITSEYIVKNADMFAVAVSLVSGKILYISNQVASIFHCKKDAFSDAKFVEFLAPHDVSVFHSYTTPYKLPPWSVCSGLDSFTQECMEEKSFFCRVSVGKHHENEIRYQPFRMTPYLVKVQEQQGAESQLCCLLLAERVHSGYEAPRIPPEKRIFTTTHTPNCLFQAVDERAVPLLGYLPQDLIETPVLVQLHPSDRPLMLAIHKKILQAGGQPFDYSPIRFRTRNGEYITLDTSWSSFINPWSRKISFIIGRHKVRVGPLNEDVFAAPPCPEEKTPHPSVQELTEQIHRLLMQPVP",1340
2,"Drosophila PERIOD fragment dPER[232–599], wild-type (domain or fragment, GST fusion from pGEX-6P2, GST removed with PreScission protease) not shown",200
3,"dPER[232–599] W482E (domain or fragment, also called dPER(W482E)) not shown",3700
4,"dPER[232–599] M560D (domain or fragment, also called dPER(M560D)) not shown",7140
5,"mouse PERIOD2 fragment mPER2[128–473], wild-type (domain or fragment, UniProt O54943 128-473, looked up, also called N-terminally extended PAS domain fragment) GKASTLATLKYALRSVKQVKANEEYYQLLMSSESQPCSVDVPSYSMEQVEGITSEYIVKNADMFAVAVSLVSGKILYISNQVASIFHCKKDAFSDAKFVEFLAPHDVSVFHSYTTPYKLPPWSVCSGLDSFTQECMEEKSFFCRVSVGKHHENEIRYQPFRMTPYLVKVQEQQGAESQLCCLLLAERVHSGYEAPRIPPEKRIFTTTHTPNCLFQAVDERAVPLLGYLPQDLIETPVLVQLHPSDRPLMLAIHKKILQAGGQPFDYSPIRFRTRNGEYITLDTSWSSFINPWSRKISFIIGRHKVRVGPLNEDVFAAPPCPEEKTPHPSVQELTEQIHRLLMQPVP",2250
